Assay results from patent US20120282280A1 (Hoffmann-La Roche, published 2012).

B1: humanized <Dig> IgG (antibody, V domains shown)
VH: QVQLVESGGGLVKPGGSLRLSCAASGFTFSDYAMSWIRQAPGKGLEWVSSINIGATYIYYADSVKGRFTISRDNAKNSLYLQMNSLRAEDTAVYYCARPGSPYEYDKAYYSMAYWGQGTTVTVSS
VL: DIQMTQSPSSLSASVGDRVTITCRASQDIKNYLNWYQQKPGKAPKLLIYYSSTLLSGVPSRFSGSGSGTDFTLTISSLQPEDFATYYCQQSITLPPTFGGGTKVEIKR
notes: also called <DIG>hu2; <DIG>-hu2
B2: murine <Dig> IgG1 kappa from mouse hybridoma clone 19-11 (antibody, V domains shown)
VH: EVQLVESGGGLVKPGGSLKLSCAVSGFTFSDYAMSWIRQTPENRLEWVASINIGATYAYYPDSVKGRFTISRDNAKNTLFLQMSSLGSEDTAMYYCARPGSPYEYDKAYYSMAYWGPGTSVTVSS
VL: DVQMTQSTSSLSASLGDRVTISCRASQDIKNYLNWYQQKPGGTVKLLIYYSSTLLSGVPSRFSGRGSGTDFSLTITNLEREDIATYFCQQSITLPPTFGGGTKLEIK
notes: also called murine DIG-IgG 19-11; <DIG>M-19-11

How the values were obtained:
[1] = target: DIG-Myoglobin (mono-digoxygenated protein); test: SPR (Biacore), DIG-Myoglobin as analyte
[2] = target: DIG-Myoglobin (mono-digoxygenated protein); test: SPR (Biacore), DIG-Myoglobin as analyte, replicate
[3] = target: DIG-Myoglobin (mono-digoxygenated protein); test: SPR (Biacore), DIG-Myoglobin as analyte; lower end of the range, tied to <DIG>hu2 by Table 3a
[4] = target: DIG-BP4 (digoxygenated protein); test: SPR (Biacore), antibody captured by anti-human IgG, DIG-BP4 injected 0.3125-10 nM, 25 C
[5] = target: DIG-Myoglobin (mono-digoxygenated protein); test: SPR (Biacore), DIG-Myoglobin as analyte; remark: listed apart in the source
[6] = target: DIG-BP4 (digoxygenated protein); test: SPR (Biacore), legend of FIG. 10d (Table 3 and the text print 33 pM)
[7] = target: DIG-BP4 (digoxygenated protein); test: SPR (Biacore), antibody captured by anti-mouse IgG, DIG-BP4 injected 0.3125-10 nM, 25 C

DIG-Myoglobin (mono-digoxygenated protein), sequence (P68082 2-154): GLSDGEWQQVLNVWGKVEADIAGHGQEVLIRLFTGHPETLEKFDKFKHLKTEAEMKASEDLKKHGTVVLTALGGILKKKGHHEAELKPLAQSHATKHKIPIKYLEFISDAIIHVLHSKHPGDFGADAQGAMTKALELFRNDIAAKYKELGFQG

Binder | Kd [1] | koff [1] | kon [1] | Kd [2] | koff [2] | kon [2] | Kd [3] | Kd [4] | fold better affinity than <DIG>-hu2 and the disulfide-stabilized <DIG> scFv [5] | Kd [6] | Kd [7]
B1 | 15.8 nM | 0.00982 s⁻¹ | 620000 M⁻¹ s⁻¹ | 11.8 nM | 0.00881 s⁻¹ | 749000 M⁻¹ s⁻¹ | 15 to 25 nM | < 0.076 nM | – | – | –
B2 | 0.386 nM | 0.000676 s⁻¹ | 1.75e+06 M⁻¹ s⁻¹ | 0.295 nM | 0.000675 s⁻¹ | 2.28e+06 M⁻¹ s⁻¹ | – | – | ~100 fold | 33 nM | 0.033 nM
